Results on one molecule are retold here after paper PMC11615311 (Nature Communications, 2024).

In experiment [1] the target is BAZ1B-SMARCA5 complex (purified) (human | , UniProt Q9UIG0 1-1483; O60264 1-1052). Nature of the experiment: pull-down.
For experiment [2], the target named is UAF1-USP1 complex (purified) (UniProt Q8TAF3 1-677; O94782 1-785). Put plainly: pull-down.
UAF1-USP1 complex (purified), sequence (Q8TAF3 whole entry, chain 1 of 2): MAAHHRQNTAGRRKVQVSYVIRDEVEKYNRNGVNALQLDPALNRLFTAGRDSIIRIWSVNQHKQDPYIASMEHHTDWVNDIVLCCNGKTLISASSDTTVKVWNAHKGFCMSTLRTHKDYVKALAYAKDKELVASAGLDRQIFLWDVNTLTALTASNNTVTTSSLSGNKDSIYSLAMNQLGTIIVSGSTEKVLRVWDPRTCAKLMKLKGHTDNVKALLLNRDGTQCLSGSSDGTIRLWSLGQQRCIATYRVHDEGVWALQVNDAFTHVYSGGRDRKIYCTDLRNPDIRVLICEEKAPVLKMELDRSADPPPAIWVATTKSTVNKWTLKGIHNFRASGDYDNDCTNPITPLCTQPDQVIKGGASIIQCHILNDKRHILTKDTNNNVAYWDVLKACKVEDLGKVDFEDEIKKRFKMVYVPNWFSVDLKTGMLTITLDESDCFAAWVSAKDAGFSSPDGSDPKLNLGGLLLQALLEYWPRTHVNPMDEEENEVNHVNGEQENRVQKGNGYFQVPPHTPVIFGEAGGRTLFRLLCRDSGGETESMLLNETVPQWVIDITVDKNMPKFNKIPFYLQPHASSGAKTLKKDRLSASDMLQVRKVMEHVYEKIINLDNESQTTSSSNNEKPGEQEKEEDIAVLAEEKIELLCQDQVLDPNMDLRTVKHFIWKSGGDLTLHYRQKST
UAF1-USP1 complex (purified), sequence (O94782 whole entry, chain 2 of 2): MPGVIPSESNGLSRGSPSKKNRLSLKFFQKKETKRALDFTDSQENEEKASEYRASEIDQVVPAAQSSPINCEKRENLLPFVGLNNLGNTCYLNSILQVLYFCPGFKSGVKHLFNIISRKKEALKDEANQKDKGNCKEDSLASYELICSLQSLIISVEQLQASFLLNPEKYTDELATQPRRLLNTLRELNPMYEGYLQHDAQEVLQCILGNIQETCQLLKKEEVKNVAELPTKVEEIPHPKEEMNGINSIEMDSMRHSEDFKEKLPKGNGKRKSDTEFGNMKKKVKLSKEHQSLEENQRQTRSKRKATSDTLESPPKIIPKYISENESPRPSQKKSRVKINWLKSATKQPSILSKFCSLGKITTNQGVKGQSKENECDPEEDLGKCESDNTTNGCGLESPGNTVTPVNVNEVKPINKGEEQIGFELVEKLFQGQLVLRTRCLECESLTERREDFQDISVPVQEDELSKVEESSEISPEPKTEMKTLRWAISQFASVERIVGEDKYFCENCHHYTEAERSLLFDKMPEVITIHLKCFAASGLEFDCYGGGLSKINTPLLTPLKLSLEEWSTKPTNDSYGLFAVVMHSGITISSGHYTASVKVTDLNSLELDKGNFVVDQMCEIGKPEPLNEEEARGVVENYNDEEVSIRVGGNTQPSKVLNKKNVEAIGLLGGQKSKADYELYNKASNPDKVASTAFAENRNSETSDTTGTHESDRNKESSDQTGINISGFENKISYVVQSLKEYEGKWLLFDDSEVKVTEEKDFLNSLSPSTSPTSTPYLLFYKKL

BAZ1B-SMARCA5 complex (purified), sequence (Q9UIG0 whole entry, chain 1 of 2): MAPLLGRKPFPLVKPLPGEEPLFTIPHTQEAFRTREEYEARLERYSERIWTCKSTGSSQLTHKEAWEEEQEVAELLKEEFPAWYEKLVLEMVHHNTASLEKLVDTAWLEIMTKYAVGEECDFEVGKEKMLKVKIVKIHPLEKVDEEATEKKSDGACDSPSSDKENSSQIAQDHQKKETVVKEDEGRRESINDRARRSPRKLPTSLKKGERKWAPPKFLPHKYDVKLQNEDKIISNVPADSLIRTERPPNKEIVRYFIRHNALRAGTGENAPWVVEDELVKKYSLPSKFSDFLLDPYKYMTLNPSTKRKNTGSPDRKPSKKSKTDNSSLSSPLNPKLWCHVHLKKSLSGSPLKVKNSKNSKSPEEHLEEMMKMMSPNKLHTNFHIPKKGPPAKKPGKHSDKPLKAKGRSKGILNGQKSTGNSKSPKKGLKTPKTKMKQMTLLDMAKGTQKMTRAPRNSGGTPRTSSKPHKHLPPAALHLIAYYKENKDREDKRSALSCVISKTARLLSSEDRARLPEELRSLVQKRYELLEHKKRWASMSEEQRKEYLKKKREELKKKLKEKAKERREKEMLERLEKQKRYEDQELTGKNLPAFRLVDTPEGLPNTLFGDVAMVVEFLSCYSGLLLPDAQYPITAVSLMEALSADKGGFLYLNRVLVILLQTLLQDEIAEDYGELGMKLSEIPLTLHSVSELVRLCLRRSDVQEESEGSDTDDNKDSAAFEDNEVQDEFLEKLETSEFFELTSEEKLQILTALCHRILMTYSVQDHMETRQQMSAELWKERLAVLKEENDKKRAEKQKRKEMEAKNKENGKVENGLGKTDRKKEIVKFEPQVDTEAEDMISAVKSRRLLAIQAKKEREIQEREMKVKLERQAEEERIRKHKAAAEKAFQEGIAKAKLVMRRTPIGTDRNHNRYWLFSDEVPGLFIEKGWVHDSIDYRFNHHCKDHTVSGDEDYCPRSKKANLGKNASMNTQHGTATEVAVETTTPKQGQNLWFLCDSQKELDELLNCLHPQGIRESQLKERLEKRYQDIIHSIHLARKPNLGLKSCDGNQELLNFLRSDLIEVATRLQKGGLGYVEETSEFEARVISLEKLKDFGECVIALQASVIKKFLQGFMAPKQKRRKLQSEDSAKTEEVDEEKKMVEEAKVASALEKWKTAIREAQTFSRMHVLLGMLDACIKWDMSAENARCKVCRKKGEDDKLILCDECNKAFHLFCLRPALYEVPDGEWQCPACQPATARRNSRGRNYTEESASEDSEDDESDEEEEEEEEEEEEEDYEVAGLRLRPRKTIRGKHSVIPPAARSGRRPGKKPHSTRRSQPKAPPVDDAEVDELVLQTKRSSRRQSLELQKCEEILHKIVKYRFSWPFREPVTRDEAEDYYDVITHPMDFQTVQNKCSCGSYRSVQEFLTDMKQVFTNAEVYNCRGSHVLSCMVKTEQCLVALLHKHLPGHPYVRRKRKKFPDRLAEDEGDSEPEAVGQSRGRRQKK
BAZ1B-SMARCA5 complex (purified), sequence (O60264 whole entry, chain 2 of 2): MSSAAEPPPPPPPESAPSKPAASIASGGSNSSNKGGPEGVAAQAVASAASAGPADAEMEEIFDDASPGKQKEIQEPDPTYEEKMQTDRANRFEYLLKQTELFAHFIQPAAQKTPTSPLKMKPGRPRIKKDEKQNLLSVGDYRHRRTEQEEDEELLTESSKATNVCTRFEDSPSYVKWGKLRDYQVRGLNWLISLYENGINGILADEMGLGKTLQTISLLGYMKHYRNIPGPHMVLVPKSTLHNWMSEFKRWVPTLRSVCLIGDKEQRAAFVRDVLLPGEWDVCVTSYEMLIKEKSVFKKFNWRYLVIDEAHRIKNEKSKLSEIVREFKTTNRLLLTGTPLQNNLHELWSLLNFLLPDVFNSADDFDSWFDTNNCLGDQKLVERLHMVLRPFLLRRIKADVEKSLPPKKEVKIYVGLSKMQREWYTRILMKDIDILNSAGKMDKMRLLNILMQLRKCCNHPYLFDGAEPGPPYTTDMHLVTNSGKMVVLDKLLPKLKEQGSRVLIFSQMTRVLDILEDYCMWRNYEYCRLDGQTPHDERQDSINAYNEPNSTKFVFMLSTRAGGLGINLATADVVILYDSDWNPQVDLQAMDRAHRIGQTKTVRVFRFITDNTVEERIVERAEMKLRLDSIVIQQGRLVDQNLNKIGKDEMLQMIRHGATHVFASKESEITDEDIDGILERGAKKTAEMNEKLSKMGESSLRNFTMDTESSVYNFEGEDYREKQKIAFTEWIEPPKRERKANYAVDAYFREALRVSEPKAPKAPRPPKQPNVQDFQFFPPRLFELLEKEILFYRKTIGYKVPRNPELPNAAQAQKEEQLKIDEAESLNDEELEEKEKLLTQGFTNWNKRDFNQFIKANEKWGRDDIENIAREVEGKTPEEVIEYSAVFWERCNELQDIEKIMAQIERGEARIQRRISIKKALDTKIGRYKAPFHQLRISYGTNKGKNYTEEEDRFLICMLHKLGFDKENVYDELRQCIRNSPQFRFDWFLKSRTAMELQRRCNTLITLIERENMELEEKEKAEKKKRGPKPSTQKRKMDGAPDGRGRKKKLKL

B1: MBP-tagged ATAD5 (1–603) (domain or fragment, human, UniProt Q96QE3 1-603, looked up)
chain: MVGVLAMAAAAAPPPVKDCEIEPCKKRKKDDDTSTCKTITKYLSPLGKTRDRVFAPPKPSNILDYFRKTSPTNEKTQLGKECKIKSPESVPVDSNKDCTTPLEMFSNVEFKKKRKRVNLSHQLNNIKTENEAPIEISSDDSKEDYSLNNDFVESSTSVLRYKKQVEVLAENIQDTKSQPNTMTSLQNSKKVNPKQGTTKNDFKKLRKRKCRDVVDLSESLPLAEELNLLKKDGKDTKQMENTTSHANSRDNVTEAAQLNDSIITVSYEEFLKSHKENKVEEIPDSTMSICVPSETVDEIVKSGYISESENSEISQQVRFKTVTVLAQVHPIPPKKTGKIPRIFLKQKQFEMENSLSDPENEQTVQKRKSNVVIQEEELELAVLEAGSSEAVKPKCTLEERQQFMKAFRQPASDALKNGVKKSSDKQKDLNEKCLYEVGRDDNSKKIMENSGIQMVSKNGNLQLHTDKGSFLKEKNKKLKKKNKKTLDTGAIPGKNREGNTQKKETTFFLKEKQYQNRMSLRQRKTEFFKSSTLFNNESLVYEDIANDDLLKVSSLCNNNKLSRKTSIPVKDIKLTQSKAESEASLLNVSTPKSTRRSGRISST
Regarding B1, the binding result in experiment [1] and in experiment [2] was “binds” each time.
